This note sets out measurements from PMC7806596, “Regulation of trehalase activity by multi-site phosphorylation and 14-3-3 interaction” (Scientific Reports, 2021).

In one test the target is Bmh1 (UniProt P29311). Kind of test: anti-FLAG co-IP, anti-V5 blot. The following applies: reference: wild type.
Test [1] deals with full-length 3xFLAG-tagged Nth1^S83A (S. cerevisiae) (UniProt P32356). Kind of test: co-IP; Nth1-3xFLAG precipitated with anti-FLAG M2 magnetic beads, Bmh1-V5 detected by blot; stationary phase cells recovered by dilution in 1% glucose minimal medium (5 min after glucose replenishment); 25 mM Tris-HCl pH 7.5, 150 mM NaCl, 5 mM CaCl2, 0.1% Triton X-100, 4 °C, 1 h.
The target of test [2] is T1, Nth1-Strep phosphorylated in vitro with PKA and CyclinB-Cdk1 (S. cerevisiae, UniProt P32356 1-751, full phosphorylation by Cdk1 (site S66) and partial phosphorylation of the PKA sites by PKA (15 nM or 1.5 nM) in vitro).
T1 construct: neutral trehalase Nth1, S. cerevisiae, full length, expressed from pASK-Iba3; also called Nth1-Strep-tagged; source: E. coli BL21(DE3)RP, purified (Strep-Tactin II Superflow), phosphorylated in vitro with PKA and cyclin B-Cdk1
T1 sequence (looked up): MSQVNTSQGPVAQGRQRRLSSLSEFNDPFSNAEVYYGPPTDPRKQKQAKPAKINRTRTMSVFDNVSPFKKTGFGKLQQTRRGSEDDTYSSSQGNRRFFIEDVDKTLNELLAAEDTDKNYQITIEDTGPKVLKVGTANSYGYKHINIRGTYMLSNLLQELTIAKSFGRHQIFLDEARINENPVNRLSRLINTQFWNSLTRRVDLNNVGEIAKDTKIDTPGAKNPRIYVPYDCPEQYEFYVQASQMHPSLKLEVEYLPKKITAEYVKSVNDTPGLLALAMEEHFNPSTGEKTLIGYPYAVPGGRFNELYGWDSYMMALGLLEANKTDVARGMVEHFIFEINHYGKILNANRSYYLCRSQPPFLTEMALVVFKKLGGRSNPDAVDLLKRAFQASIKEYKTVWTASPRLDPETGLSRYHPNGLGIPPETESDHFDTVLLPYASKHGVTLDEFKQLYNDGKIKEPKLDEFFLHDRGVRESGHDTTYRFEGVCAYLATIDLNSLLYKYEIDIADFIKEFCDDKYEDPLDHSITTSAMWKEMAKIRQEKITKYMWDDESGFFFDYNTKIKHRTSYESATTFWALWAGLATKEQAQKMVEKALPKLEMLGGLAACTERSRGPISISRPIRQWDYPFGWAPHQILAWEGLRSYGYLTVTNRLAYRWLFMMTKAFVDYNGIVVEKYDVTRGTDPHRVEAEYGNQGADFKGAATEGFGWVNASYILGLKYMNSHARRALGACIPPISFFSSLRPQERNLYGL
Kind of test: pull-down; called co-IP by the paper; 6xHis-Bmh1 from BL21RP lysate loaded on Chelating Sepharose and washed, mixed 10 min with in vitro phosphorylated Nth1-Strep (200 ng per sample); washed with 25 mM Tris-HCl pH 7.4, 150 mM NaCl, 5 mM CaCl2; bound Nth1-Strep detected by blot (StrepMAB-Classic). As to conditions: both partners purified.

Test [3] has as its target T2, recombinant full-length 6xHis-tagged Nth1 phosphorylated in vitro with PKA (S. cerevisiae, UniProt P32356 1-751, fully phosphorylated with 3 nM PKA in vitro).
T2 construct: neutral trehalase Nth1, S. cerevisiae, full length, expressed from pET28a; also called 6xHis-Nth1
T2 sequence (looked up): T1 sequence (looked up)
The test is described as follows: phosphatase shielding assay (Phos-tag autoradiograph and mass spectrometry); 1 µM 6xHis-Nth1 phosphorylated with 3 nM PKA in presence or absence of Bmh1 (5:1, Bmh1:Nth1); at 30 min PKA inhibitor and lambda phosphatase (90 U/µl, 1 mM MnCl2) added. The following applies: both partners purified.

Where only a bound is given, the exact number is not on record here.

As for Nth1 (from UniProt P32356) S83A, in the test with Bmh1 (sites S83), the percent of reference is under 10%.

In test [1], “V5-tagged Bmh1 (from UniProt P29311 1-267) (natural protein)” had a bound Bmh1, percent normalised to WT of under 10%.

For the molecule Nth1 (from UniProt P32356) S66A, in the test with Bmh1 (sites S66), the percent of reference was determined as 50%.

For the molecule Nth1 (from UniProt P32356) S60A, the percent of reference with Bmh1 (sites S60) was determined as 30%.

B1: recombinant full-length 6xHis-tagged Bmh1 (natural protein, S. cerevisiae, UniProt P29311 1-267, looked up)
chain: MSTSREDSVYLAKLAEQAERYEEMVENMKTVASSGQELSVEERNLLSVAYKNVIGARRASWRIVSSIEQKEESKEKSEHQVELICSYRSKIETELTKISDDILSVLDSHLIPSATTGESKVFYYKMKGDYHRYLAEFSSGDAREKATNASLEAYKTASEIATTELPPTHPIRLGLALNFSVFYYEIQNSPDKACHLAKQAFDDAIAELDTLSEESYKDSTLIMQLLRDNLTLWTSDMSESGQAEDQQQQQQHQQQQPPAAAEGEAPK
notes: 14-3-3 protein Bmh1, S. cerevisiae, full length, expressed from pET28a; also called 6xHis-Bmh1; Bhm1; source: E. coli BL21(DE3)RP
Consider B1, for which the binding result in test [2] and in test [3] was “binds” each time.
